Where a chain is given by its changes, count along the chain named.
Biological target: soluble uPAR (suPAR) (UniProt Q03405)
Test: SPR (Biacore 2000), antibody captured on protein A/G surface, suPAR injected, 25 C, 1:1 Langmuir fit

B1: Human Engineered ATN-658 variant HE ATN-3 (antibody, V domains shown)
VH: EVQLVQSGPEVKKTGASVKISCKASGYSFTSYYMHWVRQAHGQGLEWIGEINPYNGGASYNQKIQGRATFTVDTSTSTAYMEFSSLRSEDTAVYYCARSIYGHSVLDYWGQGTLVTVSS
VL: DVVMTQSPLSLSVTIGEPASISCRSSQSLLDSDGKTYLNWLLQKPGQSPKRLIYLVSKRDSGVPDRFSGSGSGTDFTLKISRVEAEDVGVYYCWQGTHFPLTFGQGTKLEIK
B1 was tested, and the Kd was 0.28 nM.

B2: Human Engineered ATN-658 variant HE ATN-1 (antibody, human IgG1, V domains shown)
VH: B1 VH with K12V, R38K, Q65K, S77R
VL: B1 VL
B2 was tested, and the Kd was 0.28 nM.

From US20220378956A1
